Where no end group is shown, it is not given here.
Legend:
[1] = biological target: T1, biotinylated Aβ1-42 peptide (biotinylated (N-biotinylated in Example 7)); experiment: SPR, Fab over N-biotinylated peptide on SA chip
T1 construct: captured on streptavidin chip; also called N-biotinylated Aβ1-42
Procedure: (§1) Affinities of 7G10 antibody were determined using BIAcore3000® as described previously in Example 1. N-biotinylated Aβ1-40, 1-42, and 1-43 were captured on SA chip. Threefold dilution series of anti-Aβ1-40 Fabs, anti-Aβ1-42 Fabs, and anti-Aβ1-43 Fabs respectively, were injected starting with a ⅙ dilution of the 7G10 stock listed above. The chip was regenerated with an 18 sec pulse of 6% EtOH+6 mM NaOH.

[2] = biological target: T2, biotinylated Aβ1-40 peptide (biotinylated (N-biotinylated in Example 7)); experiment: SPR, Fab over N-biotinylated peptide on SA chip
T2 construct: captured on streptavidin (SA) chip; also called Biotinylated Aβ peptide 1-40; Aβ1-40 on SA chip
Procedure: as §1

[3] = biological target: T3, N-biotinylated Aβ1-43 peptide (N-biotinylated); experiment: SPR, Fab over N-biotinylated peptide on SA chip
T3 construct: captured on SA chip
Procedure: as §1

Aβ1-40 peptide [4] = biological target: T4, Aβ1-40 peptide; experiment: SPR, mAb on CM5 chip, peptide flowed
T4 construct: synthetic peptide, not biotinylated; also called 1-40 (WT); beta amyloid 1-40
Procedure: Affinities of 9TL monoclonal antibody were determined using the BIAcore3000™ surface plasmon resonance (SPR) system (BIAcore, INC, Piscaway N.J.). […] CM5 chips were activated with N-ethyl-N′-(3-dimethylaminopropyl)-carbodiimide hydrochloride (EDC) and N-hydroxysuccinimide (NHS) according to the supplier's instructions. Antibody 9TL or its variants was diluted into 10 mM sodium acetate pH 4.0 or 5.0 and injected over the activated chip at a concentration of 0.005 mg/mL. Using variable flow time across the individual chip channels, a range of antibody density was achieved: 1000-2000 or 2000-3000 response units (RU). The chip was blocked with ethanolamine. […] HBS-EP buffer (0.01M HEPES, pH 7.4, 0.15 M NaCl, 3 mM EDTA, 0.005% Surfactant P20) was used as running buffer for all the BIAcore assays. […] Kinetic association rates (kₒₙ) and dissociation rates (koff) were obtained simultaneously by fitting the data to a 1:1 Langmuir binding model (Karlsson, R. Roos, H. Fagerstam, L. Petersson, B. (1994). Methods Enzymology 6. 99-110) using the BIAevaluation program. Equilibrium dissociation constant (KD) values were calculated as koff/kₒₙ.

[5] = biological target: T1, biotinylated Aβ1-42 peptide; experiment: SPR, Fab over biotinylated peptide on streptavidin chip
[6] = biological target: T2, biotinylated Aβ1-40 peptide; experiment: as above
[7] = biological target: T5, biotinylated Aβ22-37 peptide (also: biotinylated, site not given here); experiment: as above
T5 peptide: EDVGSNKGAIIGLMVG

Aβ1-40 peptide [8] = biological target: T4, Aβ1-40 peptide; experiment: SPR, peptide flowed over 6G mAb on CM5 chip
Aβ28-42 peptide [9] = biological target: T6, Aβ28-42 peptide; experiment: SPR, peptide flowed over 6G mAb on CM5 chip
T6 peptide: KGAIIGLMVGGVVIA

Aβ28-40 peptide [10] = biological target: T7, Aβ28-40 peptide; experiment: SPR, peptide flowed over 6G mAb on CM5 chip
T7 peptide: KGAIIGLMVGGVV

Aβ1-37 peptide [11] = experiment: SPR, peptide flowed over 6G mAb on CM5 chip
Aβ1-43 peptide = biological target: T8, Aβ1-43 peptide; experiment: SPR, peptide flowed over 6G mAb on CM5 chip
T8 construct: also called 1-43 (WT)

Aβ17-42 peptide [12] = biological target: T9, Aβ17-42 peptide; experiment: SPR, peptide flowed over 6G mAb on CM5 chip
T9 peptide: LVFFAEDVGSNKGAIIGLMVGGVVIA

Aβ1-42 peptide [13] = biological target: T10, Aβ1-42 peptide; experiment: SPR, peptide flowed over 6G mAb on CM5 chip
T10 construct: also called 1-42 (WT)

Aβ22-35 peptide [14] = biological target: T11, Aβ22-35 peptide; experiment: SPR, peptide flowed over 6G mAb on CM5 chip
T11 peptide: EDVGSNKGAIIGLM

Aβ1-36 peptide [15] = experiment: SPR, peptide flowed over 6G mAb on CM5 chip
Aβ1-28 peptide = experiment: SPR, peptide flowed over 6G mAb on CM5 chip
Aβ1-39 peptide [16] = experiment: SPR, peptide flowed over 6G mAb on CM5 chip
Aβ1-38 peptide [17] = experiment: SPR, peptide flowed over 6G mAb on CM5 chip
[18] = biological target: T12, Aβ28-40-NH2 peptide (carboxy-terminal amidated); experiment: SPR, peptide flowed over 6G mAb on CM5 chip
T12 peptide: KGAIIGLMVGGVV-NH2

Aβ17-40 peptide [19] = biological target: T13, Aβ17-40 peptide; experiment: SPR, peptide flowed over 6G mAb on CM5 chip
T13 peptide: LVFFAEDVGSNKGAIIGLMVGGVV

Aβ33-40 peptide = biological target: T14, Aβ33-40 peptide; experiment: ELISA on immobilized Aβ peptides
T14 construct: also called C-terminal peptide (33-40) of Aβ1-40
T14 peptide: GLMVGGVV
Procedure: (§2) To determine the epitope on Aβ peptide that is recognized by antibody 6G, ELISA binding analysis was used. Various Aβ peptides (Global Peptide Services, CO) was immobilized on a ELISA plate. The binding of 6G full antibody (at 20 nM) to the immobilized Aβ was determined by ELISA as described above. […] Thus, antibody 6G binds to the C-terminus of various truncated Aβ peptide, for example, 22-35, 1-38, 1-40, 1-42, and 1-43.

Aβ1-16 peptide = biological target: T15, Aβ1-16 peptide; experiment: ELISA on immobilized Aβ peptides
T15 peptide: DAEFRHDSGYEVHHQK
Procedure: as §2

Aβ1-40 peptide [20] = biological target: T4, Aβ1-40 peptide; experiment: SPR, peptide flowed over 6G mAb on CM5 chip; the reference itself
[21] = biological target: T16, biotinylated Aβ 19-33 peptide with C-terminal glycine (also: biotinylated, site not given here); experiment: ELISA on biotinylated peptides on streptavidin plates
T16 peptide: FFAEDVGSNKGAIIGG
Procedure: (§3) ELISA was used for measuring binding of antibody 6G and variants to biotinylated Aβ peptides. NUNC maxisorp plates were coated with 6 ug/ml of streptavidin (Pierce, 21122) in PBS pH 7.4 for more than 1 h at 4° C. Plates were blocked with 1% BSA in PBS buffer pH 7.4. After washing, biotinylated Aβ peptides in PBS pH 7.4 were incubated 1 hour at room temperature. Primary antibody (from cell supernatants, serum containing anti-Aβ antibody, or purified full antibody or Fabs at desired dilution) was incubated with the immobilized Aβ peptides for 1 h at room temperature. After washing, plates were incubated with secondary antibody, a HRP conjugated goat anti-human kappa chain antibody (MP Biomedicals, 55233) at 1:5000 dilution. After washing, bound secondary antibody was measured by adding TMB substrate (KPL, 50-76-02, 50-65-02). HRP reaction was stopped by adding 1M phosphoric acid and absorbance at 450 nm was measured.
(§4) Epitope mapping of antibody 6G was performed by ELISA assay. Biotinylated 15-mer or 10-mer of various Aβ peptides (these peptides have glycine added to the C-terminal end) were immobilized on streptavidin coated plates. Antibody 6G (from 2.5 ug/ml to 10 ug/ml) was incubated with the immobilized peptides and binding was measured as described above.

[22] = biological target: T17, biotinylated Aβ 24-33 peptide with C-terminal glycine (also: biotinylated, site not given here); experiment: as above
T17 peptide: VGSNKGAIIGG
Procedure: as §3, §4

[23] = biological target: T18, biotinylated Aβ 26-40 peptide with C-terminal glycine (also: biotinylated, site not given here); experiment: as above
T18 peptide: SNKGAIIGLMVGGVVG
Procedure: as §3, §4

[24] = biological target: T19, biotinylated Aβ 26-35 peptide with C-terminal glycine (also: biotinylated, site not given here); experiment: as above
T19 peptide: SNKGAIIGLMG
Procedure: as §3, §4

[25] = biological target: T20, biotinylated Aβ 27-41 peptide with C-terminal glycine (also: biotinylated, site not given here); experiment: as above
T20 peptide: NKGAIIGLMVGGVVIG
Procedure: as §3, §4

Aβ28-42 peptide [26] = biological target: T6, Aβ28-42 peptide; experiment: SPR, peptide flowed over 6G mAb on CM5 chip; reference Aβ1-40
Aβ28-40 peptide [27] = biological target: T7, Aβ28-40 peptide; experiment: as above
Aβ1-37 peptide [28] = experiment: as above
Aβ17-42 peptide [29] = biological target: T9, Aβ17-42 peptide; experiment: as above
Aβ1-42 peptide [30] = biological target: T10, Aβ1-42 peptide; experiment: as above
Aβ22-35 peptide [31] = biological target: T11, Aβ22-35 peptide; experiment: as above
Aβ1-36 peptide [32] = experiment: as above
Aβ1-39 peptide [33] = experiment: as above
Aβ1-38 peptide [34] = experiment: as above
[35] = biological target: T12, Aβ28-40-NH2 peptide (carboxy-terminal …); experiment: as above
Aβ17-40 peptide [36] = biological target: T13, Aβ17-40 peptide; experiment: as above

Sequence of Aβ1-39 peptide (peptide, as listed by the source): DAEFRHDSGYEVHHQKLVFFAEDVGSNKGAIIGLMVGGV
Sequence of Aβ1-36 peptide (peptide, as listed by the source): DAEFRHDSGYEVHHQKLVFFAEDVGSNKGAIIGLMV
Sequence of Aβ1-38 peptide (peptide, as listed by the source): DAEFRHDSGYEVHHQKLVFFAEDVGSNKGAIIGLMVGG
Sequence of Aβ1-37 peptide (peptide, as listed by the source): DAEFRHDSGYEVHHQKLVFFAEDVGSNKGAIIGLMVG
Sequence of Aβ1-28 peptide (peptide, as listed by the source): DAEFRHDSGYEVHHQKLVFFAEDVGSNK
T3 sequence (peptide, as listed by the source): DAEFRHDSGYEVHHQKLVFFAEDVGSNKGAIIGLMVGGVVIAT

B1: murine antibody 7G10 (Fab) (Fab, V domains shown)
VH: EVKLVESGGDLVKPGGSLKLSCAASGFTFSTYAMSWIRQTPEKRLEWVASIGNSSRTYYPDSVKGRFTISRDNAGSILYLQMSSLRSEDTAIYYCARGEDGNYAWFTYWGQGTQVTVS
VL: DIVLTQSPATLSVTPGDSVSLSCRASQSVKNNLHWYQQKSHESPRLLIKYTFQSMSGIPSRFSGSGSGTDFTLIINSVETEDFGMYFCQQSNRWPLTFGAGTKLEL
notes: Fab was injected in the Biacore assay; also called m7G10
- Kd [1]: 37.6 nM
- binding result [2]: no binding
- Kd [3]: 41 nM

B2: antibody 9TL (full monoclonal antibody) (antibody, human IgG2, kappa, V domains shown)
VH: QVQLVQSGAEVKKPGASVKVSCKASGYYTEAYYIHWVRQAPGQGLEWMGRIDPATGNTKYAPRLQDRVTMTRDTSTSTVYMELSSLRSEDTAVYYCASLYSLPVYWGQGTTVTVSS
VL: DVVMTQSPLSLPVTLGQPASISCKSSQSLLYSDAKTYLNWFQQRPGQSPRRLIYQISRLDPGVPDRFSGSGSGTDFTLKISRVEAEDVGVYYCLQGTHYPVLFGQGTRLEIKR
notes: human IgG2a constant region with A330P331 to S330S331; human kappa light chain; also called 9TL mAb
- Kd (Aβ1-40 peptide [4]): 0.9 nM
- koff (Aβ1-40 peptide [4]): 0.000389 s⁻¹
- kon (Aβ1-40 peptide [4]): 425000 M⁻¹ s⁻¹

B3: 6G Fab fragment (Fab, V domains shown)
VH: QVQLVQSGAEVKKPGASVKVSCKASGYTFTTYAIHWVRQAPGQGLEWMGFTSPYSGVSNYNQKFKGRVTMTRDTSTSTVYMELSSLRSEDTAVYYCARFDNYDRGYVRDYWGQGTLVTVS
VL: DIVMTQSPDSLAVSLGERATINCRASESVDNDRISFLNWYQQKPGQPPKLLIYAATKQGTGVPDRFSGSGSGTDFTLTISSLQAEDVAVYYCQQSKEFPWSFGGGTKVEIKR
notes: Fab from E. coli with human IgG2 CH1 (P01859) and human kappa constant domain (CAA09181)
- Kd [5]: 80 nM
- koff [5]: 0.0016 s⁻¹
- kon [5]: 18000 M⁻¹ s⁻¹
- Kd [6]: 2 nM
- koff [6]: 0.0007 s⁻¹
- kon [6]: 300000 M⁻¹ s⁻¹
- Kd [7]: 11 nM
- koff [7]: 0.0039 s⁻¹
- kon [7]: 360000 M⁻¹ s⁻¹

B4: antibody 6G (full monoclonal antibody) (antibody, human IgG2, kappa, V domains shown)
VH: QVQLVQSGAEVKKPGASVKVSCKASGYTFTTYAIHWVRQAPGQGLEWMGFTSPYSGVSNYNQKFKGRVTMTRDTSTSTVYMELSSLRSEDTAVYYCARFDNYDRGYVRDYWGQGTLVTVSS
VL: DIVMTQSPDSLAVSLGERATINCRASESVDNDRISFLNWYQQKPGQPPKLLIYAATKQGTGVPDRFSGSGSGTDFTLTISSLQAEDVAVYYCQQSKEFPWSFGGGTKVEIKR
notes: human IgG2a constant region with A330P331 to S330S331; human kappa light chain; also called 6G full antibody; 6G monoclonal antibody
- koff (Aβ1-40 peptide [8]): 0.000132 s⁻¹
- koff (Aβ28-42 peptide [9]): 0.00337 s⁻¹
- koff (Aβ28-40 peptide [10]): 0.00064 s⁻¹
- koff (Aβ1-37 peptide [11]): 0.0149 s⁻¹
- binding result (Aβ1-43 peptide): binds
- koff (Aβ17-42 peptide [12]): 0.0465 s⁻¹
- koff (Aβ1-42 peptide [13]): 0.0019 s⁻¹
- koff (Aβ22-35 peptide [14]): 0.0285 s⁻¹
- koff (Aβ1-36 peptide [15]): 0.0205 s⁻¹
- binding result (Aβ1-28 peptide): no binding
- koff (Aβ1-39 peptide [16]): 0.00792 s⁻¹
- koff (Aβ1-38 peptide [17]): 0.0093 s⁻¹
- koff [18]: 0.00362 s⁻¹
- koff (Aβ17-40 peptide [19]): 0.000215 s⁻¹
- binding result (Aβ33-40 peptide): no binding (tested: 20 nM)
- binding result (Aβ1-16 peptide): no binding (tested: 20 nM)
- koff Aβ peptide/koff Aβ1-40 (fold loss of affinity) (Aβ1-40 peptide [20]): 1 fold
- binding result [21]: no binding (tested: 2.5 ug/ml to 10 ug/ml)
- binding result [22]: no binding (tested: 2.5 ug/ml to 10 ug/ml)
- binding result [23]: no binding (tested: 2.5 ug/ml to 10 ug/ml)
- binding result [24]: no binding (tested: 2.5 ug/ml to 10 ug/ml)
- binding result [25]: no binding (tested: 2.5 ug/ml to 10 ug/ml)
- koff Aβ peptide/koff Aβ1-40 (fold loss of affinity) (Aβ28-42 peptide [26]): 25.5 fold
- koff Aβ peptide/koff Aβ1-40 (fold loss of affinity) (Aβ28-40 peptide [27]): 4.8 fold
- koff Aβ peptide/koff Aβ1-40 (fold loss of affinity) (Aβ1-37 peptide [28]): 113 fold
- koff Aβ peptide/koff Aβ1-40 (fold loss of affinity) (Aβ17-42 peptide [29]): 352 fold
- koff Aβ peptide/koff Aβ1-40 (fold loss of affinity) (Aβ1-42 peptide [30]): 14.4 fold
- koff Aβ peptide/koff Aβ1-40 (fold loss of affinity) (Aβ22-35 peptide [31]): 216 fold
- koff Aβ peptide/koff Aβ1-40 (fold loss of affinity) (Aβ1-36 peptide [32]): 155 fold
- koff Aβ peptide/koff Aβ1-40 (fold loss of affinity) (Aβ1-39 peptide [33]): 60 fold
- koff Aβ peptide/koff Aβ1-40 (fold loss of affinity) (Aβ1-38 peptide [34]): 70.4 fold
- koff Aβ peptide/koff Aβ1-40 (fold loss of affinity) [35]: 27.4 fold
- koff Aβ peptide/koff Aβ1-40 (fold loss of affinity) (Aβ17-40 peptide [36]): 1.6 fold

— patent US20090022728A1 (RINAT NEUROSCIENCE, published 2009)
